Source: article PMC13270198
Values joined by “and” are separate entries in the source; they are usually repeats but may differ in a detail not shown here. Equal values may be shown once.

Key:
[1] = system: Cas12a2 (SuCas12a2) (Sulfuricurvum sp. PC08-66); assay: fluorescence anisotropy; conditions: phosphorothioate (non-hydrolyzable); Fluorescence anisotropy: 25 mM HEPES pH 7.2, 150 mM KCl, 2 mM MgCl2, 5 ug/ml BSA, 10 nM probe, read at 30 min; temperature not stated
[2] = system: Cas12a2 (SuCas12a2) (Sulfuricurvum sp. PC08-66); assay: competition (cleavage inhibition); conditions: phosphorothioate (non-cleavable); Fluorescence anisotropy: 25 mM HEPES pH 7.2, 150 mM KCl, 2 mM MgCl2, 5 ug/ml BSA, 10 nM probe, read at 30 min; temperature not stated

Q: For PT collateral ssRNA, which Kd [1] is on record?
A: The Kd was 6.7 nM and 37 nM and 19 nM.

Q: Which Ki [2] does the source give for PT-ssDNA inhibitor here?
A: The Ki was 120 nM and 90 nM and 50 nM.

Q: PT-ssRNA inhibitor was tested. Which Ki [2] did it give?
A: The Ki was 610 nM and 110 nM.
